The experiment addresses 重组KRAS突变体蛋白 (KRAS Mut). Put plainly: indirect ELISA, KRAS Mut coated at 1 μg/mL, antibody diluted 1:10^3 to 1:10^6, HRP goat anti-mouse, OD450. In general terms: ELISA stands for enzyme-linked immunosorbent assay.

Chain of 重组KRAS突变体蛋白 (KRAS Mut) (chain, as listed by the source limits assumed): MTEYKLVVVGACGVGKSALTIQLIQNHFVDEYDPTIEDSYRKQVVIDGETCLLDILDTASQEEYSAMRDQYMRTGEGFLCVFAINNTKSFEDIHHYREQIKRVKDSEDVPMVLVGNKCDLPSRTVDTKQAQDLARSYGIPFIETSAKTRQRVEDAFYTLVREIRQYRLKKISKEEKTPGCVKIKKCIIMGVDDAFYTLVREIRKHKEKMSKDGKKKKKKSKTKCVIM

B1: 抗KRAS突变体单克隆抗体 KRAS Mut mAb (antibody, V domains shown)
VH: QIQLQESGPGLVKPSQSLSLTCTVTGYSITSDYAWNWIRQFPGNKLEWMGYINYSGSTSYNPSLKSRISITRDTSKNQFFLQLISVTSEDTATYYCAGSGYVRGFAYWGQGTLVTVSA
VL: DICKTQSHKFMSTSVGDRVSITCKASQDVGTAVAWYQQKPGQSPKLLIYWASTRHTGVPDRFTGSESGTDFTLTISNVQSEDLADYFCQQYSSYPYTFGGGTKLEIKR
In turn, B1 returned a 效价 (ELISA titer) (dilution factor (1:x)) of 100000.

Values taken from patent CN111705065A.
